This note sets out measurements from the supplement of paper PMC5998384.

In data set [1] the test system is HeLa Kyoto. As to the kind of experiment: solubility change mitosis vs G1/S (difference of NP-40 vs SDS log2 ratios) (log2 ratio difference); higher = more soluble in mitosis.
Data set [2] concerns HeLa Kyoto. As to the kind of experiment: solubility in G1/S (NP-40 vs SDS abundance) (log2 ratio); higher = more soluble. The following applies: cell cycle stage: G1/S.
Data set [3] has as its system HeLa Kyoto. Put plainly: thermal stability score vs G1/S (z-score of summed log2 fold changes over temperatures); higher = more thermally stable than in G1/S.
Data set [4] has as its system HeLa Kyoto. As to the kind of experiment: melting temperature (median over replicates), in situ; higher = more thermally stable.
The mark [5] stands for this setting: cell cycle stage: early G1 (4.5 h after nocodazole release).
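For melting temperature (median over replicates), in situ in this document: HeLa Kyoto cells synchronized by double thymidine or nocodazole block, proteins quantified by TMT10plex mass spectrometry, three independent biological replicates.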
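For solubility change mitosis vs G1/S (difference of NP-40 vs SDS log2 ratios) in this document: synchronized HeLa Kyoto cells (double thymidine block for G1/S, nocodazole release for mitosis), protein amounts in NP-40 versus SDS lysates quantified by mass spectrometry, three biological replicates.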
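For solubility in G1/S (NP-40 vs SDS abundance) in this document: HeLa Kyoto cells arrested at G1/S by double thymidine block, proteins quantified by TMT10plex mass spectrometry in mild NP-40 versus SDS extracts, three biological replicates.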
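For thermal stability score vs G1/S (z-score of summed log2 fold changes over temperatures) in this document: synchronized HeLa Kyoto cells, proteins quantified by TMT10plex mass spectrometry, three biological replicates, mitosis taken 0.5 h after nocodazole release, G1/S directly after double thymidine block.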

Consider “MKCFFPVLSCLAVLGVVSAQRQVTVQEGPLYRTEGSHITIWCNVSGYQGPSEQNFQWSIYLPSSPEREVQIVSTMDSSFPYAIYTQRVRGGKIFIERVQGNSTLLHITDLQARDAGEYECHTPSTDKQYFGSYSAKMNLVVIPDSLQTTAMPQTLHRVEQDPLELTCEVASETIQHSHLSVAWLRQKVGEKPVEVISLSRDFMLHSSSEYAQRQSLGEVRLDKLGRTTFRLTIFHLQPSDQGEFYCEAAEWIQDPDGSWYAMTRKRSEGAVVNVQPTDKEFTVRLETEKRLHTVGEPVEFRCILEAQNVPDRYFAVSWAFNSSLIATMGPNAVPVLNSEFAHREARGQLKVAKESDSVFVLKIYHLRQEDSGKYNCRVTEREKTVTGEFIDKESKRPKNIPIIVLPLKSSISVEVASNASVILEGEDLRFSCSVRTAGRPQGRFSVIWQLVDRQNRRSNIMWLDRDGTVQPGSSYWERSSFGGVQMEQVQPNSFSLGIFNSRKEDEGQYECHVTEWVRAVDGEWQIVGERRASTPISITALEMGFAVTAISRTPGVTYSDSFDLQCIIKPHYPAWVPVSVTWRFQPVGTVEFHDLVTFTRDGGVQWGDRSSSFRTRTAIEKAESSNNVRLSISRASDTEAGKYQCVAELWRKNYNNTWTRLAERTSNLLEIRVLQPVTKLQVSKSKRTLTLVENKPIQLNCSVKSQTSQNSHFAVLWYVHKPSDADGKLILKTTHNSAFEYGTYAEEEGLRARLQFERHVSGGLFSLTVQRAEVSDSGSYYCHVEEWLLSPNYAWYKLAEEVSGRTEVTVKQPDSRLRLSQAQGNLSVLETRQVQLECVVLNRTSITSQLMVEWFVWKPNHPERETVARLSRDATFHYGEQAAKNNLKGRLHLESPSPGVYRLFIQNVAVQDSGTYSCHVEEWLPSPSGMWYKRAEDTAGQTALTVMRPDASLQVDTVVPNATVSEKAAFQLDCSIVSRSSQDSRFAVAWYSLRTKAGGKRSSPGLEEQEEEREEEEEEDDDDDDDPTERTALLSVGPDAVFGPEGSPWEGRLRFQRLSPVLYRLTVLQASPQDTGNYSCHVEEWLPSPQKEWYRLTEEESAPIGIRVLDTSPTLQSIICSNDALFYFVFFYPFPIFGILIITILLVRFKSRNSSKNSDGKNGVPLLWIKEPHLNYSPTCLEPPVLSIHPGAID [IGSF3]”, for which the “solubility change mitosis (log2)” value in the data set with HeLa Kyoto [1] is -0.047. Besides, the “solubility in G1/S (log2)” value in the data set with HeLa Kyoto [2] was -0.0153. The thermal stability score in the data set with HeLa Kyoto [3] (setting [5]) was -2.57; with HeLa Kyoto [3] (cell cycle stage: mitosis), -2.96. Further, the melting temperature in the data set on HeLa Kyoto [4] (cell cycle stage: G1/S) is 54.3 °C; in the data set with HeLa Kyoto [4] (cell cycle stage: mitosis), 53.8 °C.
In the case of “MAPVGVEKKLLLGPNGPAVAAAGDLTSEEEEGQSLWSSILSEVSTRARSKLPSGKNILVFGEDGSGKTTLMTKLQGAEHGKKGRGLEYLYLSVHDEDRDDHTRCNVWILDGDLYHKGLLKFAVSAESLPETLVIFVADMSRPWTVMESLQKWASVLREHIDKMKIPPEKMRELERKFVKDFQDYMEPEEGCQGSPQRRGPLTSGSDEENVALPLGDNVLTHNLGIPVLVVCTKCDAVSVLEKEHDYRDEHLDFIQSHLRRFCLQYGAALIYTSVKEEKNLDLLYKYIVHKTYGFHFTTPALVVEKDAVFIPAGWDNEKKIAILHENFTTVKPEDAYEDFIVKPPVRKLVHDKELAAEDEQVFLMKQQSLLAKQPATPTRASESPARGPSGSPRTQGRGGPASVPSSSPGTSVKKPDPNIKNNAASEGVLASFFNSLLSKKTGSPGSPGAGGVQSTAKKSGQKTVLSNVQEELDRMTRKPDSMVTNSSTENEA [DYNC1LI2]”, in the data set with HeLa Kyoto [1], the “solubility change mitosis (log2)” value was determined as 0.046. The “solubility in G1/S (log2)” value in the data set on HeLa Kyoto [2] amounted to 0.247. The thermal stability score with HeLa Kyoto [3] (setting [5]) is -0.131; in the data set on HeLa Kyoto [3] (cell cycle stage: mitosis) it was 0.16. Further, the melting temperature with HeLa Kyoto [4] (cell cycle stage: G1/S) worked out at 50.6 °C; in the data set on HeLa Kyoto [4] (cell cycle stage: mitosis) it was 51.5 °C.
As to “MTLQWAAVATFLYAEIGLILIFCLPFIPPQRWQKIFSFNVWGKIATFWNKAFLTIIILLIVLFLDAVREVRKYSSVHTIEKSSTSRPDAYEHTQMKLFRSQRNLYISGFSLFFWLVLRRLVTLITQLAKELSNKGVLKTQAENTNKAAKKFMEENEKLKRILKSHGKDEECVLEAENKKLVEDQEKLKTELRKTSDALSKAQNDVMEMKMQSERLSKEYDQLLKEHSELQDRLERGNKKRL [BCAP29]”, in the data set on HeLa Kyoto [1], the “solubility change mitosis (log2)” value is -0.00377. For the same sequence, in the data set on HeLa Kyoto [2], the “solubility in G1/S (log2)” value is -0.242. For the same sequence, the thermal stability score in the data set with HeLa Kyoto [3] (setting [5]) was -4.11; in the data set on HeLa Kyoto [3] (cell cycle stage: mitosis) it was -5.19. The melting temperature in the data set with HeLa Kyoto [4] (cell cycle stage: G1/S) was 55.3 °C; in the data set with HeLa Kyoto [4] (cell cycle stage: mitosis), 52.6 °C.
In the case of “MECLRSLPCLLPRAMRLPRRTLCALALDVTSVGPPVAACGRRANLIGRSRAAQLCGPDRLRVAGEVHRFRTSDVSQATLASVAPVFTVTKFDKQGNVTSFERKKTELYQELGLQARDLRFQHVMSITVRNNRIIMRMEYLKAVITPECLLILDYRNLNLEQWLFRELPSQLSGEGQLVTYPLPFEFRAIEALLQYWINTLQGKLSILQPLILETLDALVDPKHSSVDRSKLHILLQNGKSLSELETDIKIFKESILEILDEEELLEELCVSKWSDPQVFEKSSAGIDHAEEMELLLENYYRLADDLSNAARELRVLIDDSQSIIFINLDSHRNVMMRLNLQLTMGTFSLSLFGLMGVAFGMNLESSLEEDHRIFWLITGIMFMGSGLIWRRLLSFLGRQLEAPLPPMMASLPKKTLLADRSMELKNSLRLDGLGSGRSILTNR [MRS2]”, the “solubility change mitosis (log2)” value in the data set with HeLa Kyoto [1] came to 0.124. Further, the “solubility in G1/S (log2)” value in the data set on HeLa Kyoto [2] is -0.297. Moreover, the thermal stability score with HeLa Kyoto [3] (setting [5]) was -1.88; in the data set with HeLa Kyoto [3] (cell cycle stage: mitosis), -2.56. The melting temperature in the data set with HeLa Kyoto [4] (cell cycle stage: G1/S) came out at 55.4 °C; with HeLa Kyoto [4] (cell cycle stage: mitosis), 54.5 °C.
